{"source": "the Human Domainome abundance scans (Beltran et al. 2025)", "parents": {"B1": {"name": "Tumor protein p73, residues 487 to 549; numbered along this chain, O15350 (parent)", "chain": "YHADPSLVSFLTGLGCPNCIEYFTSQGLQSIYHLQNLTIEDLGALKIPEQYRMTIWRGLQDLK"}, "B2": {"name": "Homeobox protein SIX3, residues 212 to 262; numbered along this chain, O95343 (parent)", "chain": "CFKERTRSLLREWYLQDPYPNPSKKRELAQATGLTPTQVGNWFKNRRQRDR"}}, "note": "± gives the uncertainty stated by the source.", "data": [{"variants_of": "B1", "test": "abundance fitness (aPCA) (normalised: wild type 0, dead -1); higher = more abundant; growth selection in yeast, the domain comes from the species named", "settings": "Homo sapiens", "values": [{"variant": "C19G", "abundance fitness": "-0.559 ± 0.049"}, {"variant": "C19A", "abundance fitness": "-0.033 ± 0.042"}, {"variant": "C19H", "abundance fitness": "-0.399 ± 0.077"}, {"variant": "C19D", "abundance fitness": "-0.699 ± 0.18"}, {"variant": "Y32R", "abundance fitness": "0.071 ± 0.03"}, {"variant": "Y32M", "abundance fitness": "-0.068 ± 0.064"}, {"variant": "Q60N", "abundance fitness": "0.089 ± 0.057"}, {"variant": "Q60K", "abundance fitness": "0.117 ± 0.044"}, {"variant": "Q60W", "abundance fitness": "-0.068 ± 0.035"}, {"variant": "E49I", "abundance fitness": "-0.254 ± 0.41"}, {"variant": "E49N", "abundance fitness": "0.077 ± 0.12"}, {"variant": "S6M", "abundance fitness": "-0.031 ± 0.06"}, {"variant": "S6Q", "abundance fitness": "0.064 ± 0.066"}, {"variant": "S6T", "abundance fitness": "-0.052 ± 0.04"}, {"variant": "L14Y", "abundance fitness": "-0.315 ± 0.095"}, {"variant": "L14D", "abundance fitness": "-0.923 ± 0.18"}, {"variant": "L14P", "abundance fitness": "-0.949 ± 0.18"}, {"variant": "L14R", "abundance fitness": "-0.353 ± 0.038"}, {"variant": "L14W", "abundance fitness": "-0.542 ± 0.073"}, {"variant": "L14V", "abundance fitness": "0.024 ± 0.031"}, {"variant": "L14H", "abundance fitness": "-0.231 ± 0.082"}, {"variant": "R57G", "abundance fitness": "-0.01 ± 0.046"}, {"variant": "R57K", "abundance fitness": "-0.011 ± 0.048"}, {"variant": "R57F", "abundance fitness": "0.311 ± 0.39"}, {"variant": "W56P", "abundance fitness": "-0.893 ± 0.13"}, {"variant": "W56V", "abundance fitness": "-0.048 ± 0.043"}, {"variant": "W56M", "abundance fitness": "-0.049 ± 0.05"}, {"variant": "W56T", "abundance fitness": "0.082 ± 0.051"}, {"variant": "W56F", "abundance fitness": "0.075 ± 0.07"}, {"variant": "W56K", "abundance fitness": "-0.106 ± 0.044"}, {"variant": "L42W", "abundance fitness": "0.072 ± 0.033"}, {"variant": "L42S", "abundance fitness": "-0.785 ± 0.08"}, {"variant": "L42M", "abundance fitness": "-0.078 ± 0.047"}, {"variant": "A44R", "abundance fitness": "0.135 ± 0.028"}, {"variant": "A44S", "abundance fitness": "0.057 ± 0.042"}, {"variant": "A44C", "abundance fitness": "0.02 ± 0.058"}, {"variant": "A44N", "abundance fitness": "-0.061 ± 0.13"}, {"variant": "A44Q", "abundance fitness": "0.036 ± 0.052"}, {"variant": "A44H", "abundance fitness": "-0.021 ± 0.063"}, {"variant": "A44D", "abundance fitness": "0.174 ± 0.085"}, {"variant": "V8E", "abundance fitness": "0.222 ± 0.043"}, {"variant": "V8C", "abundance fitness": "0.006 ± 0.058"}, {"variant": "V8Q", "abundance fitness": "0.037 ± 0.046"}, {"variant": "V8K", "abundance fitness": "0.235 ± 0.04"}, {"variant": "V8D", "abundance fitness": "0.143 ± 0.15"}, {"variant": "L59H", "abundance fitness": "-0.801 ± 0.18"}, {"variant": "L59S", "abundance fitness": "-0.265 ± 0.039"}, {"variant": "L59K", "abundance fitness": "-0.561 ± 0.11"}, {"variant": "L59C", "abundance fitness": "-0.106 ± 0.1"}, {"variant": "L59Y", "abundance fitness": "-0.097 ± 0.12"}, {"variant": "L59E", "abundance fitness": "-0.95 ± 0.16"}, {"variant": "L37E", "abundance fitness": "-0.667 ± 0.074"}, {"variant": "L37R", "abundance fitness": "-0.191 ± 0.034"}, {"variant": "L37W", "abundance fitness": "-0.159 ± 0.054"}, {"variant": "L37P", "abundance fitness": "-0.799 ± 0.12"}, {"variant": "L37C", "abundance fitness": "-0.089 ± 0.082"}, {"variant": "L37S", "abundance fitness": "-0.142 ± 0.044"}, {"variant": "Q26S", "abundance fitness": "-0.004 ± 0.032"}, {"variant": "D61H", "abundance fitness": "0.039 ± 0.088"}, {"variant": "D61A", "abundance fitness": "-0.136 ± 0.039"}, {"variant": "D61N", "abundance fitness": "-0.046 ± 0.041"}, {"variant": "D61Q", "abundance fitness": "-0.126 ± 0.053"}, {"variant": "D61E", "abundance fitness": "-0.068 ± 0.068"}, {"variant": "Y51P", "abundance fitness": "-0.049 ± 0.094"}, {"variant": "Y51F", "abundance fitness": "-0.032 ± 0.14"}, {"variant": "Y51D", "abundance fitness": "-0.072 ± 0.18"}, {"variant": "Y51N", "abundance fitness": "-0.139 ± 0.11"}, {"variant": "Y51Q", "abundance fitness": "-0.124 ± 0.1"}, {"variant": "Y51C", "abundance fitness": "-0.083 ± 0.071"}, {"variant": "G15Y", "abundance fitness": "-0.462 ± 0.084"}, {"variant": "G15F", "abundance fitness": "-0.508 ± 0.097"}, {"variant": "G15S", "abundance fitness": "-0.17 ± 0.036"}, {"variant": "G15L", "abundance fitness": "-0.616 ± 0.065"}, {"variant": "G15H", "abundance fitness": "-0.26 ± 0.13"}, {"variant": "G15N", "abundance fitness": "-0.002 ± 0.053"}, {"variant": "E21Y", "abundance fitness": "-0.042 ± 0.073"}, {"variant": "E21V", "abundance fitness": "-0.018 ± 0.031"}, {"variant": "E21I", "abundance fitness": "-0.138 ± 0.052"}, {"variant": "E21C", "abundance fitness": "-0.182 ± 0.07"}, {"variant": "L11K", "abundance fitness": "-0.681 ± 0.089"}, {"variant": "L11G", "abundance fitness": "-0.923 ± 0.075"}, {"variant": "L11W", "abundance fitness": "-0.914 ± 0.15"}, {"variant": "L11C", "abundance fitness": "-0.13 ± 0.049"}, {"variant": "L11D", "abundance fitness": "-1.14 ± 0.22"}, {"variant": "L11M", "abundance fitness": "-0.115 ± 0.043"}, {"variant": "L11E", "abundance fitness": "-0.825 ± 0.1"}, {"variant": "S25P", "abundance fitness": "-0.179 ± 0.052"}, {"variant": "S25Y", "abundance fitness": "-0.266 ± 0.082"}, {"variant": "S25G", "abundance fitness": "0.029 ± 0.031"}, {"variant": "S25K", "abundance fitness": "0.046 ± 0.044"}, {"variant": "H33G", "abundance fitness": "-0.038 ± 0.033"}, {"variant": "H33L", "abundance fitness": "-0.142 ± 0.037"}, {"variant": "H33F", "abundance fitness": "-0.344 ± 0.099"}, {"variant": "H33M", "abundance fitness": "-0.088 ± 0.052"}, {"variant": "H33N", "abundance fitness": "-0.027 ± 0.086"}, {"variant": "H33W", "abundance fitness": "-0.566 ± 0.07"}, {"variant": "H33Q", "abundance fitness": "0.069 ± 0.043"}, {"variant": "H33E", "abundance fitness": "0.003 ± 0.041"}, {"variant": "H33V", "abundance fitness": "-0.059 ± 0.034"}, {"variant": "H33A", "abundance fitness": "-0.014 ± 0.035"}, {"variant": "E40P", "abundance fitness": "-0.152 ± 0.074"}, {"variant": "E40D", "abundance fitness": "-0.06 ± 0.071"}, {"variant": "T24N", "abundance fitness": "-0.224 ± 0.13"}, {"variant": "T24L", "abundance fitness": "-0.037 ± 0.039"}, {"variant": "T24F", "abundance fitness": "-0.212 ± 0.079"}, {"variant": "T24K", "abundance fitness": "-0.013 ± 0.056"}, {"variant": "T24V", "abundance fitness": "-0.077 ± 0.038"}, {"variant": "T24D", "abundance fitness": "-0.198 ± 0.062"}, {"variant": "T24W", "abundance fitness": "-0.187 ± 0.037"}, {"variant": "S9R", "abundance fitness": "0.048 ± 0.023"}, {"variant": "S9W", "abundance fitness": "-0.411 ± 0.048"}, {"variant": "S9F", "abundance fitness": "-0.194 ± 0.056"}, {"variant": "S9Y", "abundance fitness": "-0.237 ± 0.04"}, {"variant": "S9C", "abundance fitness": "-0.312 ± 0.059"}, {"variant": "G58E", "abundance fitness": "0.014 ± 0.033"}, {"variant": "G58S", "abundance fitness": "-0.104 ± 0.047"}, {"variant": "G58V", "abundance fitness": "-0.846 ± 0.082"}, {"variant": "G58W", "abundance fitness": "-0.932 ± 0.12"}, {"variant": "G58M", "abundance fitness": "-0.896 ± 0.12"}, {"variant": "G58D", "abundance fitness": "-0.528 ± 0.086"}, {"variant": "G58N", "abundance fitness": "-0.36 ± 0.078"}, {"variant": "G58F", "abundance fitness": "-0.708 ± 0.17"}, {"variant": "G43P", "abundance fitness": "-0.012 ± 0.085"}, {"variant": "G43Y", "abundance fitness": "-0.005 ± 0.069"}, {"variant": "G43R", "abundance fitness": "-0.016 ± 0.042"}, {"variant": "G43H", "abundance fitness": "0.16 ± 0.11"}, {"variant": "G43W", "abundance fitness": "-0.135 ± 0.056"}, {"variant": "G43N", "abundance fitness": "-0.003 ± 0.1"}, {"variant": "G43I", "abundance fitness": "-0.135 ± 0.1"}, {"variant": "G43V", "abundance fitness": "-0.018 ± 0.053"}, {"variant": "G43T", "abundance fitness": "0.003 ± 0.052"}, {"variant": "T12N", "abundance fitness": "0.117 ± 0.083"}, {"variant": "T12D", "abundance fitness": "0.236 ± 0.099"}, {"variant": "T12P", "abundance fitness": "-1.1 ± 0.15"}, {"variant": "T12G", "abundance fitness": "0.1 ± 0.039"}, {"variant": "T12V", "abundance fitness": "-0.061 ± 0.028"}, {"variant": "T12H", "abundance fitness": "0.01 ± 0.061"}, {"variant": "T12F", "abundance fitness": "-0.092 ± 0.078"}, {"variant": "T12I", "abundance fitness": "-0.032 ± 0.04"}, {"variant": "F10N", "abundance fitness": "-0.804 ± 0.35"}, {"variant": "F10Y", "abundance fitness": "-0.294 ± 0.074"}, {"variant": "F23N", "abundance fitness": "-0.733 ± 0.15"}, {"variant": "F23Q", "abundance fitness": "-0.801 ± 0.12"}, {"variant": "F23G", "abundance fitness": "-0.995 ± 0.075"}, {"variant": "F23W", "abundance fitness": "-0.966 ± 0.11"}, {"variant": "F23M", "abundance fitness": "-0.306 ± 0.057"}]}, {"variants_of": "B2", "test": "abundance fitness (aPCA) (normalised: wild type 0, dead -1); higher = more abundant; growth selection in yeast, the domain comes from the species named", "settings": "Homo sapiens", "values": [{"variant": "C1S", "abundance fitness": "-0.121 ± 0.18"}, {"variant": "C1W", "abundance fitness": "-0.251 ± 0.16"}, {"variant": "C1V", "abundance fitness": "-0.402 ± 0.3"}, {"variant": "C1E", "abundance fitness": "-0.342 ± 0.49"}, {"variant": "C1F", "abundance fitness": "0.499 ± 0.16"}, {"variant": "C1G", "abundance fitness": "-0.359 ± 0.14"}, {"variant": "C1I", "abundance fitness": "0.874 ± 0.28"}, {"variant": "F2N", "abundance fitness": "0.149 ± 0.11"}, {"variant": "F2Q", "abundance fitness": "-0.178 ± 0.095"}, {"variant": "F2D", "abundance fitness": "0.361 ± 0.076"}, {"variant": "F2R", "abundance fitness": "-0.324 ± 0.048"}, {"variant": "F2E", "abundance fitness": "0.037 ± 0.062"}, {"variant": "F2I", "abundance fitness": "-0.047 ± 0.1"}, {"variant": "F2P", "abundance fitness": "-0.258 ± 0.044"}, {"variant": "F2M", "abundance fitness": "0.253 ± 0.089"}, {"variant": "F2C", "abundance fitness": "-0.315 ± 0.092"}, {"variant": "F2L", "abundance fitness": "-0.022 ± 0.067"}, {"variant": "F2H", "abundance fitness": "-0.083 ± 0.052"}, {"variant": "F2K", "abundance fitness": "0.009 ± 0.1"}, {"variant": "F2G", "abundance fitness": "-0.04 ± 0.045"}, {"variant": "F2A", "abundance fitness": "-0.183 ± 0.06"}]}]}
